Reference: the nanobody polyreactivity screen of Harvey et al. (2022)

experiment: yeast display, Sf9 membrane polyspecificity reagent, FACS + sequencing; frameworks hold sequencing errors
Method in brief: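 Using colony PCR, genes from sorted yeast display clones were amplified, then sequenced on MiSeq at 2 × 250 and filtered by CDR length. The clones had been stained with 10% biotinylated, detergent-solubilized Sf9 membrane reagent for 1 hour at 4 °C and sorted by FACS into low and high (top ~1%) gates on anti-HA and streptavidin fluorescence. Polyreactivity labels come from the gate of origin.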

Row | Sequence | polyreactivity (PSR sort gate)
1 | QVQLVESGGGLVQAGGSLRLSCAASGFTFSFYAMGWYRQAPGKERELVAVISRSGGGTYYADSVKGRFTISRDNAKHTVYLQMNSLKPEDTAVYYCAARLGNRRYDYWGQGTQVTVSS | high polyreactivity
2 | QVQLVESGGGLVQAGGSLRLSCAASGFTFSFYSMGWSRQAPGKERELVAAITSRGTSTYYADSVKGRFTISRDNAKNTVYLQMNSLKPEDTAVYYCAKLLPRGQWPYDYWGQGTQVTVSS | high polyreactivity
3 | QVQLVESGGGLVQAGGSLRLSCAASGFTFSGNAMGWYRQAPGKERELVAAITTTGVRTYYADSVKGRFTISRDNAKNTVYLQMNSLKPEDTAVYYCNKKRTQRVPVRYDYWGQGTQVTVSS | high polyreactivity
4 | QVQLVESGGGLVQAGGSLRLSCAASGFTFSGYAMGWYRQAPGKERELVAVIRGRGGRTYYADSVKGRFTISRDNAKNTVYLQMNSLKPEDTAVYYCAARRDAYYYVPNRFDYWGQGTQVTVSS | high polyreactivity
5 | QVQLVESGGGLVQAGGSLRLSCAASGFTFSLYAMGWYRQAPGKDRELVASISRSGGSTYYADSVKGRFTISRDNAKYTVYIQMYSLKPEDTAVYYCAARWRPYKYDSWGQGTQVTVSS | high polyreactivity
6 | QVQLVESGGGLVQAGGSLRLSCAASGFTFSLYAMGWYRQAPGKERELVASISSRGGSTYYADSVKGRFTISRDNAKNTVYLQMNSLKPEDTAVYYCNAGSVTRAWWGYWPFNYWGQGTQVTVSS | low polyreactivity
7 | QVQLVESGGGLVQAGGSLRLSCAASGFTFSNNVMGWYRQAPGKERELVADITDSGGDTYYADSVKGRFTISRDNAKNTVYLQMNSLKPEDTAVYYCAARPQHFDLDLAYSGFDYWGQGTQVTVSS | high polyreactivity
8 | QVQLVESGGGLVQAGGSLRLSCAASGFTFSNYAMGWYRQAPGKEREFVAAISGTGGSTYYADSVKGRFTISRDNAKNTVYLQMNSLKPEDTAVYYCNARERVSRQYTFDYWGQGTQVTVSS | high polyreactivity
9 | QVQLVESGGGLVQAGGSLRLSCAASGFTFSPNAMGWYRQAPGKERELVAAISKRGASTYYADSVKGRFTISRDNAKNTVYLQMNSLKPEDTAVYYCNVGASARKPYDYWGQGTQVTVSS | high polyreactivity
10 | QVQLVESGGGLVQAGGSLRLSCAASGFTFSPYTMGSYRQAPGKERELVAGITSRGGSTYYADSVKGRFTISRDTAKNTVYLQMNILKPEDSAVYYCAARSPGYYRIVWYDYWGQGTQVTVSS | high polyreactivity
11 | QVQLVESGGGLVQAGGSLRLSCAASGFTFSRNDMGWYRQAPGKERELVASITTSGGGTYYADSVKGRFTISRDKAKNTVYLQMNSLKPEDTAVYYCAAEYYSIRYGPHSIEVYGMDYWGQGTQVTVSS | low polyreactivity
12 | QVQLVESGGGLVQAGGSLRLSCAASGFTFSRNGMGWYRLAPGKERELVADITLSGASTYYADSVKGRFTISRDNAKNTVYLQMKSLKPEDTAVYYCAADPYHWRWGWRHDYWGQGTQVTVSS | low polyreactivity
13 | QVQLVESGGGLVQAGGSLRLSCAASGFTFSRNTMGWYRQAPGKERELVAAITWRGGSTYYADSVKGRFTISRDNAKNTVYLQMNSLKPEDTAVYYCAASSPNLEFDYWGQGTQVTVSS | high polyreactivity
14 | QVQLVESGGGLVQAGGSLRLSCAASGFTFSRYAMAWYRQAPGKERELVAAITWSGGRTYYADSVKGRFTISRDNAKNTVYLQMNSLKPEATAVYYCAAVYHVWKYHYDYWGQGTQVTVSS | high polyreactivity
15 | QVQLVESGGGLVQAGGSLRLSCAASGFTFSRYAMGWYRPAPGKERELVAAISTRGGRTYYADSVKGRFTISRDNAKNTVYLQMNSLKPEDTAVYYCAADATVGSSDYWGQGTQVTVSS | high polyreactivity
16 | QVQLVESGGGLVQAGGSLRLSCAASGFTFSRYAMGWYRQAPGKERELVAAISYSGGRTYYADSVKGRFTISRDNAKNTVYLQMKSLKPEDTAVYYCNAFFTSSGWRLGYDYWGQGTQVTVSS | high polyreactivity
17 | QVQLVESGGGLVQAGGSLRLSCAASGFTFSRYAMGWYRQAPGKERELVAAITRRGGRTYYADSVKGRFTISRDNAKNTVFLQMNSLKPEDTAVYYCITDAYRLGYDYWGQGTQVTVSS | high polyreactivity
18 | QVQLVESGGGLVQAGGSLRLSCAASGFTFSRYAMGWYRQAPGKEREYVAAISWSGGSTYYADSVKGRFTISRDNAKNTVYLQMNSLKPEDTAVYNCNAGAQLLASQTRYDYWGQGTQVTVSS | low polyreactivity
19 | QVQLVESGGGLVQAGGSLRLSCAASGFTFSRYAMGWYRQAPGTERELVAAITSRGGSTYYADSVKGRFTISRDNAKNTVYLQMNSLKPEDTAVYYCAASGRNRKDGLYEYYYWGQGTQVTVSS | high polyreactivity
20 | QVQLVESGGGLVQAGGSLRLSCAASGFTFSSNAMGWYRQAPGKERELVADINWSGGRTYYADSVKGRFTISRDNAKYTVYLQMNSLKPEDTAVYYCAAVLSWRQYYREYDYWGQGTQVTVSS | high polyreactivity
21 | QVQLVESGGGLVQAGGSLRLSCAASGFTFSSYAMGWYRQAPGKERELVAAISSSGSRTYYADSVKGRFTISRDNAKNTVYLQMNSLKPEDTAVYYCAARPGDGGYYYWGQGTQVTVSS | high polyreactivity
22 | QVQLVESGGGLVQAGGSLRLSCAASGFTFSSYDMGWYRQAPGKERELVAAISRSGGSTYYADSVKGRFTISRDNAKNTVYLQMNCLKPEDTAVYYARAKYSRVTLYQGYGYWGQGTQVTVSS | high polyreactivity

Row | Sequence | polyreactivity (PSR sort gate)
23 | QVQLVESGGGLVQAGGSLRLSCAASGFTFSTNAMGWYRQAPGKERELVAAISKSGVSTYYADSVKGRFTISRDNAKNTVYLQMNSLKPEDTAVYYCAADPKIALYKVWRYDYWGQGTQVTVSS | high polyreactivity
24 | QVQLVESGGGLVQAGGSLRLSCAASGFTFSTYAMGWDRQAPGKERELVAAISRSGGSTYYADSVKGRFTISRDNAKNTVYLQMNSLKPEDTAVYYCAVRPFRSAGGSVTRGAYYYWGQGTQVTVSS | high polyreactivity
25 | QVQLVESGGGLVQAGGSLRLSCAASGFTFSTYDMGWYRQAPRKERELVAAIDYIDGSTYYADSVKGRFTISRDNAKNTVDLQMNCLKPEDTAVYYCAAHYYYDEFGYWGQGTQVTVSS | low polyreactivity
26 | QVQLVESGGGLVQAGGSLRLSCAASGFTFSVNAMGWYRQAPGKERELVAAISSRGGSTYYADSVKGRFTISRDNAKNTVYLQMNSLKPEDTAVYYCAKYPFYRSRHLGYWGQGTQVTVSS | high polyreactivity
27 | QVQLVESGGGLVQAGGSLRLSCAASGFTFSWYVMGWYRQAPGKERELVATITNRGGSTYYADSVKGRFTISRDNAKNTVYLQMNSLKPEDTAVYYCAARNYGKYRTNDYWGQGTQVTVSS | high polyreactivity
28 | QVQLVESGGGLVQAGGSLRLSCAASGFTFSYNAMGWYRQAPGKERELVAAISSGGRTYYADSVKGRFTISRDNAKNTVYLQINSLKPEDTAVYYCNAEPDQYTLRSITNDEDYWGQGTQVTVSS | low polyreactivity
29 | QVQLVESGGGLVQAGGSLRLSCAASGFTFSYYAMGGYRQAPGKERELVAGIDYSGGSTYYADSVKGRFTISRDNAKNTVYLQMNSQKPEDTAVFYCNAVYARKYYYSHGYDYWGQGTQVTVSS | high polyreactivity
30 | QVQLVESGGGLVQAGGSLRLSCAASGFTFSYYAMGWSRQAPGKERELVAAITTSGGRTYYADSVKGRFTISRDNAKNTFYLQMNSLKPEDTAVYYCAATYPRYYSGEFDYWGQGTQVTVSS | high polyreactivity
31 | QVQLVESGGGLVQAGGSLRLSCAASGFTFSYYAMGWYRQAPGKERELVAAITSSAGSTYYADSVKGRFTISRDNAKNTVYLQMNSLKPEDTAVYYCNAVYSKLNGGYDYWGQGTQVTVSS | low polyreactivity
32 | QVQLVESGGGLVQAGGSLRLSCAASGFTFSYYAMGWYRQAPGKERELVAGITTGGGTNYADSVKGRFTISRDNAKNTVYLQMNSLKPEDTAVFYCNADYWYKYDYWGQGTQVTVSS | low polyreactivity
33 | QVQLVESGGGLVQAGGSLRLSCAASGFTFSYYAMGWYRQSPGKERELVASISRSGNTYYADSVKGRFTISRDNAKNTVYLQMKSLKPEDTAVYYCAAKRKSYYSYNFDYWGQGTQVTVSS | high polyreactivity
34 | QVQLVESGGGLVQAGGSLRLSCAASGFTFSYYARGWYRQAPGKERELVAAISINGGRTYYADSVKGRFTISRDNAKNTVYLQMNSLKPEDTAVYYCNAVSYAYTVRMYYWGQVTQVTVSS | high polyreactivity
35 | QVQLVESGGGLVQAGGSLRLSCAASGFTFSYYSMGRYRQAPGKERELVARISFSGTRTYYADSVKGRFTISRDNAKNTVYLQMNSLKPEDTAVYYCARRYRDYGRYGYWGQGTQVTVSS | high polyreactivity
36 | QVQLVESGGGLVQAGGSLRLSCAASGFTFTANGMGWYIQAPGKERELLAAINWSGSRTYYADSVKGRFTISRDNAKNTVYLQMNSLKPEDTAVYYCNTATSKSSYRHYDYWGQGTQVTVSS | high polyreactivity
37 | QVQLVESGGGLVQAGGSLRLSCAASGFTFTAYAMGWYRQAPGKERELVAAISNRGGRTYYADSVKGRFTFSRDNAKNTVYLQMNSLKPEDTAVYYCAAGYSYAQYSYPFLSFAFGYWGQGTQVTVSS | high polyreactivity
38 | QVQLVESGGGLVQAGGSLRLSCAASGFTFTAYARGWYRQAPGKERELVAAINWSGSRTSYADSVKGRFTISRDNAKNTVYLQMNSLKPEDTAVYYCNPATSKSSYRHYDYWGQGTQVTVSS | high polyreactivity
39 | QVQLVESGGGLVQAGGSLRLSCAASGFTFTDNAMGRYRQAPGKERELVAAISEGSGITYYADSVKGRFTISRDNAKNTVYLQMNSLKPEDTAVYYCAADWLSKYDYWGQGTQVTVSS | low polyreactivity
40 | QVQLVESGGGLVQAGGSLRLSCAASGFTFTDYAMGWYRQAPGKERELVAAIYGIGGSTYYADSVKGRFTISRDNAKITVYLKMKSLKPEDTAVYYWNAYRSFTGYDYDYWGQGTQVTVSS | high polyreactivity
41 | QVQLVESGGGLVQAGGSLRLSCAASGFTFTHYAMGWYREAPGKERELVAAISTSVGSKYYADSVKGRFTISRDNAKNTVYVQMNSLKPEDTAVYYFAARRDGWVQWGNYYWGQVTQVTVSS | low polyreactivity
42 | QVQLVESGGGLVQAGGSLRLSCAASGFTFTINAMGWYRQAPGKERELVAAINWRGGSTYYADSVKGRFTISRDNAKNTVYLQMNSLKPEDTAVYYCNAVASIYSYAYPPYWGREHLNYWGQGTQVTVSS | low polyreactivity
43 | QVQLVESGGGLVQAGGSLRLSCAASGFTFTIYAMGWYRPAPGKEMELVAAITGRGGSTYYADSVKGRFTISRDNAKNTVYLRMNSLKPEDTAVYYCADSQRSGHPSYDYWGQGTQVTVSS | high polyreactivity
